Results on 1 substance are retold here after PMC3079738.

The target in this test is human CD81 expressed on transfected CHO cells (human) (UniProt P60033). Put plainly: flow cytometry on cells; CHO cells transfected with human CD81 plasmid (or naive), 5x10^5 cells incubated with crude 293T cell extract containing E2 for 1 h at room temperature in PBS, 2% fetal calf serum, 0.05% NaN3; detected with goat anti-E2 and FITC anti-goat IgG; MFI as percent of wild type E2 on CHO-CD81.
Sequence of UniProt P60033 (P60033 whole entry): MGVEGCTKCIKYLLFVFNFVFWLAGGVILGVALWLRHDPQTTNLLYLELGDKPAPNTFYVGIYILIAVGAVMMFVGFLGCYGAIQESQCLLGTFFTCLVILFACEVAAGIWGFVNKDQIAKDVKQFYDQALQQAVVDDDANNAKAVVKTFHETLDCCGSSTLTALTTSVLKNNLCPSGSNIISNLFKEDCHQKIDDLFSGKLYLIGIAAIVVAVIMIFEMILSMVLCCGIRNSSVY

“E2-W529/A, mutant of the carboxyl terminal truncated HCV E2 protein (aa 364-661), strain H77 (from UniProt P27958 364-661) (domain or fragment)”: the CD81 binding activity as percent of the wild type protein (MFI) was below 5%.
